From the supplement of paper PMC10567573

B1: ALDH8A1 (parent)
chain: RVAKKLQSGLVWTNCWLIRELNLP
B2: TMEM120A (parent)
chain: YQSFVQFLQYYYQSGCLYRLRALG

Variants of: B1
Test: protein stability index of a GFP-peptide fusion (GPS, HEK-293T) (PSI 1-6); higher = more stable
Conditions: c terminus: a fixed tail appended
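Note: lentivirally expressed fusions sorted by FACS into six bins by GFP to DsRed ratio, PSI derived from sequencing read proportions per bin multiplied by bin number.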

| Variant | protein stability index |
| --- | --- |
| RVAKKLQSGLVWTNCWLIRELNQP [L23Q] | 3.48 |
| RVAKKLQSGLVWTNCWLIRELNLA [P24A] | 2.76 |
| RVAKKLQSGLVWTNCWLIRELNLS [P24S] | 2.25 |
| RVAKKLQSGLVWTNCWLIRELNLT [P24T] | 2.19 |
| RVAKKLQSGLVWTNCWLIRELNLW [P24W] | 3.34 |
| RVAKKLQSGLVWTNCWLIRELNLY [P24Y] | 3.16 |

Variants of: B2
Test: as above
Conditions: c terminus: a fixed tail appended

| Variant | protein stability index |
| --- | --- |
| EQSFVQFLQYYYQSGCLYRLRALG [Y1E] | 1.49 |
| FQSFVQFLQYYYQSGCLYRLRALG [Y1F] | 3.06 |
| IQSFVQFLQYYYQSGCLYRLRALG [Y1I] | 2.24 |
| KQSFVQFLQYYYQSGCLYRLRALG [Y1K] | 2.19 |
| MQSFVQFLQYYYQSGCLYRLRALG [Y1M] | 2.68 |
| QQSFVQFLQYYYQSGCLYRLRALG [Y1Q] | 2.83 |
| SQSFVQFLQYYYQSGCLYRLRALG [Y1S] | 1.86 |
| YASFVQFLQYYYQSGCLYRLRALG [Q2A] | 2.37 |
| YESFVQFLQYYYQSGCLYRLRALG [Q2E] | 3.02 |
| YFSFVQFLQYYYQSGCLYRLRALG [Q2F] | 3.7 |
| YISFVQFLQYYYQSGCLYRLRALG [Q2I] | 2.65 |
| YLSFVQFLQYYYQSGCLYRLRALG [Q2L] | 3.88 |
| YMSFVQFLQYYYQSGCLYRLRALG [Q2M] | 3.47 |
| YRSFVQFLQYYYQSGCLYRLRALG [Q2R] | 1.21 |
| YSSFVQFLQYYYQSGCLYRLRALG [Q2S] | 2.29 |
| YWSFVQFLQYYYQSGCLYRLRALG [Q2W] | 1.21 |
| YYSFVQFLQYYYQSGCLYRLRALG [Q2Y] | 1.83 |
| YQAFVQFLQYYYQSGCLYRLRALG [S3A] | 1.05 |
| YQDFVQFLQYYYQSGCLYRLRALG [S3D] | 3.12 |
| YQHFVQFLQYYYQSGCLYRLRALG [S3H] | 2.33 |
| YQLFVQFLQYYYQSGCLYRLRALG [S3L] | 3.8 |
| YQMFVQFLQYYYQSGCLYRLRALG [S3M] | 3.7 |

| Variant | protein stability index |
| --- | --- |
| YQNFVQFLQYYYQSGCLYRLRALG [S3N] | 2.12 |
| YQPFVQFLQYYYQSGCLYRLRALG [S3P] | 3.24 |
| YQRFVQFLQYYYQSGCLYRLRALG [S3R] | 2.35 |
| YQTFVQFLQYYYQSGCLYRLRALG [S3T] | 2.88 |
| YQVFVQFLQYYYQSGCLYRLRALG [S3V] | 3.32 |
| YQYFVQFLQYYYQSGCLYRLRALG [S3Y] | 4.62 |
| YQSAVQFLQYYYQSGCLYRLRALG [F4A] | 3.21 |
| YQSCVQFLQYYYQSGCLYRLRALG [F4C] | 3.14 |
| YQSDVQFLQYYYQSGCLYRLRALG [F4D] | 1.31 |
| YQSIVQFLQYYYQSGCLYRLRALG [F4I] | 3.47 |
| YQSLVQFLQYYYQSGCLYRLRALG [F4L] | 3.35 |
| YQSMVQFLQYYYQSGCLYRLRALG [F4M] | 2.91 |
| YQSPVQFLQYYYQSGCLYRLRALG [F4P] | 2.47 |
| YQSRVQFLQYYYQSGCLYRLRALG [F4R] | 1.62 |
| YQSSVQFLQYYYQSGCLYRLRALG [F4S] | 1.59 |
| YQSTVQFLQYYYQSGCLYRLRALG [F4T] | 3.43 |
| YQSVVQFLQYYYQSGCLYRLRALG [F4V] | 4.44 |
| YQSWVQFLQYYYQSGCLYRLRALG [F4W] | 2.8 |
| YQSYVQFLQYYYQSGCLYRLRALG [F4Y] | 2.38 |
| YQSFCQFLQYYYQSGCLYRLRALG [V5C] | 2.31 |
| YQSFFQFLQYYYQSGCLYRLRALG [V5F] | 2.25 |
| YQSFHQFLQYYYQSGCLYRLRALG [V5H] | 2.39 |

| Variant | protein stability index |
| --- | --- |
| YQSFIQFLQYYYQSGCLYRLRALG [V5I] | 3.51 |
| YQSFKQFLQYYYQSGCLYRLRALG [V5K] | 2.62 |
| YQSFMQFLQYYYQSGCLYRLRALG [V5M] | 2.91 |
| YQSFNQFLQYYYQSGCLYRLRALG [V5N] | 4.88 |
| YQSFQQFLQYYYQSGCLYRLRALG [V5Q] | 1.89 |
| YQSFRQFLQYYYQSGCLYRLRALG [V5R] | 3.82 |
| YQSFVDFLQYYYQSGCLYRLRALG [Q6D] | 3.22 |
| YQSFVEFLQYYYQSGCLYRLRALG [Q6E] | 1.84 |
| YQSFVFFLQYYYQSGCLYRLRALG [Q6F] | 1.8 |
| YQSFVGFLQYYYQSGCLYRLRALG [Q6G] | 3.6 |
| YQSFVLFLQYYYQSGCLYRLRALG [Q6L] | 3.11 |
| YQSFVNFLQYYYQSGCLYRLRALG [Q6N] | 2.48 |
| YQSFVRFLQYYYQSGCLYRLRALG [Q6R] | 2.24 |
| YQSFVVFLQYYYQSGCLYRLRALG [Q6V] | 2.92 |
| YQSFVWFLQYYYQSGCLYRLRALG [Q6W] | 3.03 |
| YQSFVQDLQYYYQSGCLYRLRALG [F7D] | 1.8 |
| YQSFVQHLQYYYQSGCLYRLRALG [F7H] | 1.62 |
| YQSFVQILQYYYQSGCLYRLRALG [F7I] | 2.33 |
| YQSFVQLLQYYYQSGCLYRLRALG [F7L] | 3.51 |
| YQSFVQNLQYYYQSGCLYRLRALG [F7N] | 3.1 |
| YQSFVQSLQYYYQSGCLYRLRALG [F7S] | 1.04 |
| YQSFVQTLQYYYQSGCLYRLRALG [F7T] | 2.28 |

| Variant | protein stability index |
| --- | --- |
| YQSFVQWLQYYYQSGCLYRLRALG [F7W] | 3.54 |
| YQSFVQYLQYYYQSGCLYRLRALG [F7Y] | 5.14 |
| YQSFVQFAQYYYQSGCLYRLRALG [L8A] | 3.44 |
| YQSFVQFCQYYYQSGCLYRLRALG [L8C] | 2.17 |
| YQSFVQFDQYYYQSGCLYRLRALG [L8D] | 1.91 |
| YQSFVQFEQYYYQSGCLYRLRALG [L8E] | 1.66 |
| YQSFVQFGQYYYQSGCLYRLRALG [L8G] | 3.09 |
| YQSFVQFHQYYYQSGCLYRLRALG [L8H] | 1.73 |
| YQSFVQFNQYYYQSGCLYRLRALG [L8N] | 2.08 |
| YQSFVQFQQYYYQSGCLYRLRALG [L8Q] | 2.13 |
| YQSFVQFSQYYYQSGCLYRLRALG [L8S] | 1.28 |
| YQSFVQFTQYYYQSGCLYRLRALG [L8T] | 1.88 |
| YQSFVQFWQYYYQSGCLYRLRALG [L8W] | 1.62 |
| YQSFVQFYQYYYQSGCLYRLRALG [L8Y] | 2.79 |
| YQSFVQFLAYYYQSGCLYRLRALG [Q9A] | 2.91 |
| YQSFVQFLCYYYQSGCLYRLRALG [Q9C] | 2.9 |
| YQSFVQFLFYYYQSGCLYRLRALG [Q9F] | 2.13 |
| YQSFVQFLLYYYQSGCLYRLRALG [Q9L] | 2.74 |
| YQSFVQFLMYYYQSGCLYRLRALG [Q9M] | 1.77 |
| YQSFVQFLNYYYQSGCLYRLRALG [Q9N] | 2.7 |
| YQSFVQFLPYYYQSGCLYRLRALG [Q9P] | 1.25 |
| YQSFVQFLWYYYQSGCLYRLRALG [Q9W] | 2.71 |
